Laboratory results as given in patent US20140087995A1 (published 2014).
Each block holds one binder with its values, some of them ahead of it. Numbered stars: 1 amine (or outer) side, 2 acyl side, 3 side chain; on linkers, the order of the positions; unused ones are H or OH. Bridge positions count the residues as written; N and C are the ends. Side chains are listed from the residue outwards. Ends that are not written are not given here. * marks the point of attachment. C20 diacid = O=C(O)CCCCCCCCCCCCCCCCCCC(=O)*; C18 diacid = O=C(O)CCCCCCCCCCCCCCCCC(=O)*; γGlu = O=C(O)[C@H](CCC(=O)[*:2])N[*:1]

What was measured:
rat calcitonin receptor [1] = molecular target: T1, rat calcitonin receptor (rat, UniProt P32214 25-516); experiment: SPA competition with 125I-calcitonin on membranes of BHK tk'ts 13 cells with rat calcitonin receptor (Assay VIII)
T1 construct: whole, on cells; Membranes of transiently transfected BHK tk'ts 13 cells; also called rCTR; rat calcitonin (a) receptor
T1 sequence (looked up): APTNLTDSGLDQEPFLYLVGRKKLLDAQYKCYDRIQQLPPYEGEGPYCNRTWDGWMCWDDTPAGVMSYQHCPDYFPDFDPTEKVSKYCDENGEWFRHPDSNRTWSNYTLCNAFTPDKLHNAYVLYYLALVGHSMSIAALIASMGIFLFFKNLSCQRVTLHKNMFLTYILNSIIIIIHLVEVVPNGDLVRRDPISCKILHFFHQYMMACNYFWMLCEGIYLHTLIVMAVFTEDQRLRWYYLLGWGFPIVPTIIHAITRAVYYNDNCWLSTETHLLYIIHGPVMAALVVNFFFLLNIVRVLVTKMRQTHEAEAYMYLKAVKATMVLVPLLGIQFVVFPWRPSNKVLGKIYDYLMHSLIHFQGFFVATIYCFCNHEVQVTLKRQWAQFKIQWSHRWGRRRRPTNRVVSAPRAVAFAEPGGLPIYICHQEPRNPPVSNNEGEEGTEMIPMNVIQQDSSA

[2] = molecular target: T2, human calcitonin receptor (human, UniProt P30988 25-474); experiment: ratio of IC50 on human calcitonin receptor to IC50 on human amylin receptor (reference m42), SPA competition
T2 construct: whole, on cells; Membranes of stably transfected cells; also called hCTR; hCT
T2 sequence (looked up): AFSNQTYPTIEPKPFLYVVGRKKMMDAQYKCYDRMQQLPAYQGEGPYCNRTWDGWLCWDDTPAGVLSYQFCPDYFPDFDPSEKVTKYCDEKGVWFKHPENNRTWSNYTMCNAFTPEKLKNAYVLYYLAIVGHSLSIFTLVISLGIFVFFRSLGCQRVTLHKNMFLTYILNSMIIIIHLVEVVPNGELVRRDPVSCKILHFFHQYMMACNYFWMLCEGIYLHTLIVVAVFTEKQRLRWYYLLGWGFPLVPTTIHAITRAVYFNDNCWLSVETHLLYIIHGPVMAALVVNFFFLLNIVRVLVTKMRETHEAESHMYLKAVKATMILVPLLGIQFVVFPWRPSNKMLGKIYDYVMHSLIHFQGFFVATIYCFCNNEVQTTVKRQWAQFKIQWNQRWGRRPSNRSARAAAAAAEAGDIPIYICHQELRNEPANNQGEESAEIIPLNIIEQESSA
Procedure, shortened: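 Competition binding by SPA with cell membranes (35 ng/μL) and SPA beads in 50 mM Hepes pH 7.4 with 1 mM CaCl2, 5 mM MgCl2, 0.1% OA and 0.02% Tween20. Incubated 120 min at 25 °C with shaking, then counted.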

[3] = molecular target: T3, rat amylin receptor (rat calcitonin receptor + rat RAMP 3) (rat, UniProt P32214 25-516; Q9JJ73 23-147); experiment: SPA competition with 125I-rat amylin on membranes of BHK tk'ts 13 cells with rat calcitonin receptor + rat RAMP3 (Assay VI)
T3 construct: whole, on cells; Membranes of transiently transfected BHK tk'ts 13 cells; also called rAmylin-R; rat amylin 3(a) receptor
T3 sequence (looked up) 1: T1 sequence (looked up)
T3 sequence (looked up) 2: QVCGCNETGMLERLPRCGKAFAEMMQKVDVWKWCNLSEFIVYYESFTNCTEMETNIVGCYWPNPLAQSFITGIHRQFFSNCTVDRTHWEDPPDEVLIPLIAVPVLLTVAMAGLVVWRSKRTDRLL

rat calcitonin receptor [4] = molecular target: T1, rat calcitonin receptor; experiment: ratio of IC50 on rat calcitonin receptor to IC50 on rat amylin receptor (reference m40)

B3: N^ε1-[(4S)-4-carboxy-4-(19-carboxynonadecanoylamino)butanoyl]-[Ala14,Arg17,Pro21,Pro27,Pro34]-h-amylin (peptide)
peptide: K([γGlu-C20 diacid])CNTATCATQRLAAFLRHSSPNFGAIPSSTNVGPNTY-NH2
modifications: disulfide 2-7; N-terminus assumed
SMILES: CC[C@H](C)[C@H](NC(=O)[C@H](C)NC(=O)CNC(=O)[C@H](Cc1ccccc1)NC(=O)[C@H](CC(N)=O)NC(=O)[C@@H]1CCCN1C(=O)[C@H](CO)NC(=O)[C@H](CO)NC(=O)[C@H](Cc1c[nH]cn1)NC(=O)[C@H](CCCNC(=N)N)NC(=O)[C@H](CC(C)C)NC(=O)[C@H](Cc1ccccc1)NC(=O)[C@H](C)NC(=O)[C@H](C)NC(=O)[C@H](CC(C)C)NC(=O)[C@H](CCCNC(=N)N)NC(=O)[C@H](CCC(N)=O)NC(=O)[C@@H](NC(=O)[C@H](C)NC(=O)[C@@H]1CSSC[C@H](NC(=O)[C@@H](N)CCCCNC(=O)CC[C@H](NC(=O)CCCCCCCCCCCCCCCCCCC(=O)O)C(=O)O)C(=O)N[C@@H](CC(N)=O)C(=O)N[C@@H]([C@@H](C)O)C(=O)N[C@@H](C)C(=O)N[C@@H]([C@@H](C)O)C(=O)N1)[C@@H](C)O)C(=O)N1CCC[C@H]1C(=O)N[C@@H](CO)C(=O)N[C@@H](CO)C(=O)N[C@H](C(=O)N[C@@H](CC(N)=O)C(=O)N[C@H](C(=O)NCC(=O)N1CCC[C@H]1C(=O)N[C@@H](CC(N)=O)C(=O)N[C@H](C(=O)N[C@@H](Cc1ccc(O)cc1)C(N)=O)[C@@H](C)O)C(C)C)[C@@H](C)O
notes: Synthetic acylated analogue of human amylin; also called compound 94
- IC50 (rat calcitonin receptor [1]): 111 nM
- Ratio hCT/hAmylin binding [2]: 46.3
- IC50 [3]: 0.397 nM
- Ratio rCT/rAmylin binding (rat calcitonin receptor [4]): 280

B5: N^ε1-[(4S)-4-carboxy-4-(19-carboxynonadecanoylamino)butanoyl]-[Ala14,Arg17,Pro21,Pro27,His34]-h-amylin (peptide)
peptide: K([γGlu-C20 diacid])CNTATCATQRLAAFLRHSSPNFGAIPSSTNVGHNTY-NH2
modifications: disulfide 2-7; N-terminus assumed
SMILES: CC[C@H](C)[C@H](NC(=O)[C@H](C)NC(=O)CNC(=O)[C@H](Cc1ccccc1)NC(=O)[C@H](CC(N)=O)NC(=O)[C@@H]1CCCN1C(=O)[C@H](CO)NC(=O)[C@H](CO)NC(=O)[C@H](Cc1c[nH]cn1)NC(=O)[C@H](CCCNC(=N)N)NC(=O)[C@H](CC(C)C)NC(=O)[C@H](Cc1ccccc1)NC(=O)[C@H](C)NC(=O)[C@H](C)NC(=O)[C@H](CC(C)C)NC(=O)[C@H](CCCNC(=N)N)NC(=O)[C@H](CCC(N)=O)NC(=O)[C@@H](NC(=O)[C@H](C)NC(=O)[C@@H]1CSSC[C@H](NC(=O)[C@@H](N)CCCCNC(=O)CC[C@H](NC(=O)CCCCCCCCCCCCCCCCCCC(=O)O)C(=O)O)C(=O)N[C@@H](CC(N)=O)C(=O)N[C@@H]([C@@H](C)O)C(=O)N[C@@H](C)C(=O)N[C@@H]([C@@H](C)O)C(=O)N1)[C@@H](C)O)C(=O)N1CCC[C@H]1C(=O)N[C@@H](CO)C(=O)N[C@@H](CO)C(=O)N[C@H](C(=O)N[C@@H](CC(N)=O)C(=O)N[C@H](C(=O)NCC(=O)N[C@@H](Cc1c[nH]cn1)C(=O)N[C@@H](CC(N)=O)C(=O)N[C@H](C(=O)N[C@@H](Cc1ccc(O)cc1)C(N)=O)[C@@H](C)O)C(C)C)[C@@H](C)O
notes: Synthetic acylated analogue of human amylin; also called compound 93
- IC50 (rat calcitonin receptor [1]): 131 nM
- Ratio hCT/hAmylin binding [2]: 101
- IC50 [3]: 1.58 nM
- Ratio rCT/rAmylin binding (rat calcitonin receptor [4]): 83.2

The next binders have a lower IC50 (rat calcitonin receptor [1]) than those just listed; values first:

- IC50 (rat calcitonin receptor [1]): 47 nM
- Ratio hCT/hAmylin binding [2]: 59.4
- IC50 [3]: 1.17 nM
- Ratio rCT/rAmylin binding (rat calcitonin receptor [4]): 40.3
B1: N^ε1-[(4S)-4-carboxy-4-(17-carboxyheptadecanoylamino)butanoyl]-[Arg17,Pro21,Pro27,His34]-h-amylin (peptide)
peptide: K([γGlu-C18 diacid])CNTATCATQRLANFLRHSSPNFGAIPSSTNVGHNTY-NH2
modifications: disulfide 2-7; N-terminus assumed
SMILES: CC[C@H](C)[C@H](NC(=O)[C@H](C)NC(=O)CNC(=O)[C@H](Cc1ccccc1)NC(=O)[C@H](CC(N)=O)NC(=O)[C@@H]1CCCN1C(=O)[C@H](CO)NC(=O)[C@H](CO)NC(=O)[C@H](Cc1c[nH]cn1)NC(=O)[C@H](CCCNC(=N)N)NC(=O)[C@H](CC(C)C)NC(=O)[C@H](Cc1ccccc1)NC(=O)[C@H](CC(N)=O)NC(=O)[C@H](C)NC(=O)[C@H](CC(C)C)NC(=O)[C@H](CCCNC(=N)N)NC(=O)[C@H](CCC(N)=O)NC(=O)[C@@H](NC(=O)[C@H](C)NC(=O)[C@@H]1CSSC[C@H](NC(=O)[C@@H](N)CCCCNC(=O)CC[C@H](NC(=O)CCCCCCCCCCCCCCCCC(=O)O)C(=O)O)C(=O)N[C@@H](CC(N)=O)C(=O)N[C@@H]([C@@H](C)O)C(=O)N[C@@H](C)C(=O)N[C@@H]([C@@H](C)O)C(=O)N1)[C@@H](C)O)C(=O)N1CCC[C@H]1C(=O)N[C@@H](CO)C(=O)N[C@@H](CO)C(=O)N[C@H](C(=O)N[C@@H](CC(N)=O)C(=O)N[C@H](C(=O)NCC(=O)N[C@@H](Cc1c[nH]cn1)C(=O)N[C@@H](CC(N)=O)C(=O)N[C@H](C(=O)N[C@@H](Cc1ccc(O)cc1)C(N)=O)[C@@H](C)O)C(C)C)[C@@H](C)O
notes: Synthetic acylated analogue of human amylin

- IC50 (rat calcitonin receptor [1]): 18.6 nM
- Ratio hCT/hAmylin binding [2]: 16.7
- IC50 [3]: 0.3 nM
- Ratio rCT/rAmylin binding (rat calcitonin receptor [4]): 62
B2: N^ε1-[(4S)-4-carboxy-4-(19-carboxynonadecanoylamino)butanoyl]-[Asp14,Arg17,Pro21,Pro27,Pro34,Glu35]-h-amylin (peptide)
peptide: K([γGlu-C20 diacid])CNTATCATQRLADFLRHSSPNFGAIPSSTNVGPETY-NH2
modifications: disulfide 2-7; N-terminus assumed
SMILES: CC[C@H](C)[C@H](NC(=O)[C@H](C)NC(=O)CNC(=O)[C@H](Cc1ccccc1)NC(=O)[C@H](CC(N)=O)NC(=O)[C@@H]1CCCN1C(=O)[C@H](CO)NC(=O)[C@H](CO)NC(=O)[C@H](Cc1c[nH]cn1)NC(=O)[C@H](CCCNC(=N)N)NC(=O)[C@H](CC(C)C)NC(=O)[C@H](Cc1ccccc1)NC(=O)[C@H](CC(=O)O)NC(=O)[C@H](C)NC(=O)[C@H](CC(C)C)NC(=O)[C@H](CCCNC(=N)N)NC(=O)[C@H](CCC(N)=O)NC(=O)[C@@H](NC(=O)[C@H](C)NC(=O)[C@@H]1CSSC[C@H](NC(=O)[C@@H](N)CCCCNC(=O)CC[C@H](NC(=O)CCCCCCCCCCCCCCCCCCC(=O)O)C(=O)O)C(=O)N[C@@H](CC(N)=O)C(=O)N[C@@H]([C@@H](C)O)C(=O)N[C@@H](C)C(=O)N[C@@H]([C@@H](C)O)C(=O)N1)[C@@H](C)O)C(=O)N1CCC[C@H]1C(=O)N[C@@H](CO)C(=O)N[C@@H](CO)C(=O)N[C@H](C(=O)N[C@@H](CC(N)=O)C(=O)N[C@H](C(=O)NCC(=O)N1CCC[C@H]1C(=O)N[C@@H](CCC(=O)O)C(=O)N[C@H](C(=O)N[C@@H](Cc1ccc(O)cc1)C(N)=O)[C@@H](C)O)C(C)C)[C@@H](C)O
notes: as for B1

- IC50 (rat calcitonin receptor [1]): 58.5 nM
- Ratio hCT/hAmylin binding [2]: 151
- IC50 [3]: 0.504 nM
- Ratio rCT/rAmylin binding (rat calcitonin receptor [4]): 116
B4: N^ε1-[(4S)-4-carboxy-4-(19-carboxynonadecanoylamino)butanoyl]-[Asp14,Arg17,Pro21,Pro27,Pro34,Arg35]-h-amylin (peptide)
peptide: K([γGlu-C20 diacid])CNTATCATQRLADFLRHSSPNFGAIPSSTNVGPRTY-NH2
modifications: disulfide 2-7; N-terminus assumed
SMILES: CC[C@H](C)[C@H](NC(=O)[C@H](C)NC(=O)CNC(=O)[C@H](Cc1ccccc1)NC(=O)[C@H](CC(N)=O)NC(=O)[C@@H]1CCCN1C(=O)[C@H](CO)NC(=O)[C@H](CO)NC(=O)[C@H](Cc1c[nH]cn1)NC(=O)[C@H](CCCNC(=N)N)NC(=O)[C@H](CC(C)C)NC(=O)[C@H](Cc1ccccc1)NC(=O)[C@H](CC(=O)O)NC(=O)[C@H](C)NC(=O)[C@H](CC(C)C)NC(=O)[C@H](CCCNC(=N)N)NC(=O)[C@H](CCC(N)=O)NC(=O)[C@@H](NC(=O)[C@H](C)NC(=O)[C@@H]1CSSC[C@H](NC(=O)[C@@H](N)CCCCNC(=O)CC[C@H](NC(=O)CCCCCCCCCCCCCCCCCCC(=O)O)C(=O)O)C(=O)N[C@@H](CC(N)=O)C(=O)N[C@@H]([C@@H](C)O)C(=O)N[C@@H](C)C(=O)N[C@@H]([C@@H](C)O)C(=O)N1)[C@@H](C)O)C(=O)N1CCC[C@H]1C(=O)N[C@@H](CO)C(=O)N[C@@H](CO)C(=O)N[C@H](C(=O)N[C@@H](CC(N)=O)C(=O)N[C@H](C(=O)NCC(=O)N1CCC[C@H]1C(=O)N[C@@H](CCCNC(=N)N)C(=O)N[C@H](C(=O)N[C@@H](Cc1ccc(O)cc1)C(N)=O)[C@@H](C)O)C(C)C)[C@@H](C)O
notes: as for B1
